Measurements reported in patent US20220064276A1 (SCHOLAR ROCK, published 2022).
Read-outs that look alike come from different tables or passages of the source.

Assays:
[1] = target: T1, human LTBP3-proTGFβ1 complex (human, UniProt Q9NS15 44-1303; P01137 30-390, limits assumed); test: Octet BLI, IgG captured
T1 construct: Exemplary entries; also called Hu LTBP3-proTGFβ1; huLTBP3 proTGFb1
Procedure: (§1) Binding affinities of the optimized antibodies were measured by Octet against human LTBP1-proTGFβ1, human LTBP3-proTGFβ1, mouse LTBP1-proTGFβ1, mouse LTBP3-proTGFβ1, and GARP-proTGFβ1 complexes, essentially as described in Example 6. […] The antigens were allowed to associate for 3 minutes followed by a 5-minute dissociation. Kinetics buffer (ForteBio®) was used throughout the experiment, and KD was determined using a 1:1 fitting model for each antibody antigen pair.

[2] = target: T2, mouse LTBP1-proTGFβ1 complex (mouse, UniProt Q8CG19 339-1712; P04202 30-390); test: Octet BLI, IgG captured
T2 construct: Exemplary entries; In the cell assays expressed from mouse LTBP1S and mouse proTGFb1 plasmids in LN229 cells; also called Mo LTBP1-proTGFβ1; MuLTBP1-ProTGFb1
Procedure: as §1

[3] = target: T3, human LTBP1-proTGFβ1 complex (human, UniProt Q14766 347-1721; P01137 30-390); test: Octet BLI, IgG captured
T3 construct: Large latent complex: one presenting molecule disulfide-linked to a proTGFβ1 dimer; also called Hu LTBP1-proTGFβ1; huLTBP1 proTGFβ1
T3 sequence (Q14766 347-1721 limits assumed, chain 1 of 2): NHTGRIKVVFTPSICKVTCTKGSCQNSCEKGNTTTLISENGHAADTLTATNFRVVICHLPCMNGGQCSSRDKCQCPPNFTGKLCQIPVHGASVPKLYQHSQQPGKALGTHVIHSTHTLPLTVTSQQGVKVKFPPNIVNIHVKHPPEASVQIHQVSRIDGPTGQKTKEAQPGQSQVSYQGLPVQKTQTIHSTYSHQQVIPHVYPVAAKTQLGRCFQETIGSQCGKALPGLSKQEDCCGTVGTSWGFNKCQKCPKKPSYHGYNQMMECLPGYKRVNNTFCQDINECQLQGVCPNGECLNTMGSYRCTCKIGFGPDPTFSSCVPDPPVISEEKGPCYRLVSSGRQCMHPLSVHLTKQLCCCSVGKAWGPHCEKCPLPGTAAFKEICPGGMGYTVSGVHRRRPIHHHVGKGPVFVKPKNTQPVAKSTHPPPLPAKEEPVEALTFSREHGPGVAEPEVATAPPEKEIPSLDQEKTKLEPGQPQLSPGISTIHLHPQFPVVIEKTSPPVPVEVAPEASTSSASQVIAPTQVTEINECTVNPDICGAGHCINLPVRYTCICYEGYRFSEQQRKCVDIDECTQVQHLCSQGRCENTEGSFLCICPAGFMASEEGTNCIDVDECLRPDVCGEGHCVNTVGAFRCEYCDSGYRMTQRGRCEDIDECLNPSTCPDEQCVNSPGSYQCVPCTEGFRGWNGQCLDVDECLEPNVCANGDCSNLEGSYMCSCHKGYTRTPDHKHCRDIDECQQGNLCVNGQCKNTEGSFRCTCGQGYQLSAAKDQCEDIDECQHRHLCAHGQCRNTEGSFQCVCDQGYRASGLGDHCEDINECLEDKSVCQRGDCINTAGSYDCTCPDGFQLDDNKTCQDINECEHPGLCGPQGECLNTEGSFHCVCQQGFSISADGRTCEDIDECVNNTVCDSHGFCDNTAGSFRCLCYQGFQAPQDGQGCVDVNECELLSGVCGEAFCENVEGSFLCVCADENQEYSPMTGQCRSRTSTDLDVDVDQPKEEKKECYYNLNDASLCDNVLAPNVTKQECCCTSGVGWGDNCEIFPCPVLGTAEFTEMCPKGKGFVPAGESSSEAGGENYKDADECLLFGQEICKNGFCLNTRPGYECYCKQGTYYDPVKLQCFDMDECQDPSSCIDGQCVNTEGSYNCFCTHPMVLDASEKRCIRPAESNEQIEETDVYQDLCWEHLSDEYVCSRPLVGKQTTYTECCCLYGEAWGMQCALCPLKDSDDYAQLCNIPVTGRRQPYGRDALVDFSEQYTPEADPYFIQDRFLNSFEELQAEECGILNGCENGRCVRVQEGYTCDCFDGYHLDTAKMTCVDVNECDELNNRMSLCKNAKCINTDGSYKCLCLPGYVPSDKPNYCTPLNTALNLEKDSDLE
T3 sequence (P01137 30-390 limits assumed, chain 2 of 2): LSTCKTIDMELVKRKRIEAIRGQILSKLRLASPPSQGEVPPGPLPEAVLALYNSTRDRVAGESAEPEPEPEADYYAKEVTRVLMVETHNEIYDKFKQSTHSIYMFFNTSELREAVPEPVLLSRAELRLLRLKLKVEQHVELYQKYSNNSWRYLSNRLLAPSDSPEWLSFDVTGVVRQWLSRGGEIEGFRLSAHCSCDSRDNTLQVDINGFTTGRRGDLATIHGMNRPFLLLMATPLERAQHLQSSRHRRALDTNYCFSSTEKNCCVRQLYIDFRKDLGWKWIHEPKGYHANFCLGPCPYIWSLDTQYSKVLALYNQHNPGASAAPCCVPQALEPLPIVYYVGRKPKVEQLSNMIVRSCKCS
Procedure: as §1

[4] = target: T4, mouse LTBP3-proTGFβ1 complex (mouse, UniProt Q61810 41-1245; P04202 30-390, limits assumed); test: Octet BLI, IgG captured
T4 construct: Exemplary entries; also called Mo LTBP3-proTGFβ1; Murine LTBP3 proTGFb1
Procedure: as §1

[5] = target: T2, mouse LTBP1-proTGFβ1 complex; test: cell-based or functional assay
[6] = target: T5, LTBP-proTGFβ1: transfected human proTGFβ1 presented by endogenous LTBP1/3 of LN229 cells (human); test: cell-based or functional assay
T5 sequence (P01137 30-390): as the sequence (P01137 30-390 limits assumed, chain 2 of 2) above

[7] = target: T6, human GARP-proTGFβ1 complex (human, UniProt Q14392 18-627; P01137 30-390, limits assumed); test: Octet (bio-layer interferometry), response at 200 nM antigen; 0.1 nm cutoff designates meaningful binding
T6 construct: Exemplary entries; also called Hu GARP-proTGFβ1; huGARP proTGFb1
T6 sequence (Q14392 18-627 limits assumed, chain 1 of 2): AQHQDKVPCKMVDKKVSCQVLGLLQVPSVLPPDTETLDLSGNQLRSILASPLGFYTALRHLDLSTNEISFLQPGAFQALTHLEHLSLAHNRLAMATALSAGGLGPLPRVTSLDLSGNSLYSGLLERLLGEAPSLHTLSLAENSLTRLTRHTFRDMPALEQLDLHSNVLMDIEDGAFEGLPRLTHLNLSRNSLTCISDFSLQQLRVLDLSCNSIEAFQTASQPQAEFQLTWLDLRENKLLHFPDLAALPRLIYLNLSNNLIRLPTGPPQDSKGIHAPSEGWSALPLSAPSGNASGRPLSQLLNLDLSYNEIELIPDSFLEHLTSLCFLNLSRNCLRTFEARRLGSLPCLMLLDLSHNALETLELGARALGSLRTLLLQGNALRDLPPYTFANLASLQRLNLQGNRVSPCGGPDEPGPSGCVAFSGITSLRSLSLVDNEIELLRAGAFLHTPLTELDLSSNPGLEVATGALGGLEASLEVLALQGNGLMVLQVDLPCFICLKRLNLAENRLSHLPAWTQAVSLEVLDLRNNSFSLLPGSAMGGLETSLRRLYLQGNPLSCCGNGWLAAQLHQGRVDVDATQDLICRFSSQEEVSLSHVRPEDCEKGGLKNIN
T6 sequence (P01137 30-390 limits assumed, chain 2 of 2): as the sequence (P01137 30-390 limits assumed, chain 2 of 2) above
Procedure: This experiment was performed at 200, 100, 50, and 25 nM human GARP proTGFb1 and human LTBP1 proTGFbl. […] Surface plasmon resonance (SPR)-based assays

[8] = target: T2, mouse LTBP1-proTGFβ1 complex; test: cell-based or functional assay; remark: listed apart in the source
[9] = target: T5, LTBP-proTGFβ1: transfected human …; test: cell-based or functional assay; remark: listed apart in the source
[10] = target: T6, human GARP-proTGFβ1 complex; test: Octet BLI, Table 10 (repeats Table 9)
Procedure: as §1
Table 9 presents the binding profile and affinity data for the indicated LTBP complex-specific antibodies (IgG1-agly) identified from the light chain optimization cycle 3, determined by Octet.

[11] = target: T6, human GARP-proTGFβ1 complex; test: Octet BLI, IgG captured
Procedure: as §1

[12] = target: T2, mouse LTBP1-proTGFβ1 complex; test: cell-based or functional assay; remark: listed apart in the source
[13] = target: T5, LTBP-proTGFβ1: transfected human …; test: cell-based or functional assay; remark: listed apart in the source
[14] = target: T7, mouse LRRC33-proTGFβ1 complex (mouse, UniProt Q8BMT4 20-651, limits assumed); test: SPR Biacore 8K, Fab over captured antigen, Rmax fixed
T7 construct: also called MuLRRC33-ProTGFb1; Mu LRRC33-ProTGFβ1
Procedure: (§2) These experiments were performed using the Biacore 8K using the method “multi-cycle kinetics/affinity using Biotin CAPture kit.”
(§3) Data collection rate was set to 10 Hz and the Biotin CAPture step was performed for 300 seconds with a flow rate of 2 μL/minute. The Biotin CAPture reagent was used after a 1:5 dilution in 1× Biacore running buffer. Biotinylated ligands (the various complexes of TGFβ1) were utilized at a concentration of 10 nM and were immobilized to the sensor chip for 180 seconds with a flow rate of 10 μL/minute. […] Analyte contact time was 120 seconds and the dissociation time was 900 seconds. The regeneration cycle utilized was 120 seconds with a flow rate of 10 μL/minute.
(§4) The evaluation method used was “multi-cycle affinity using capture” and a 1:1 binding model was used. […] Global fits were utilized for every KD determination.

[15] = target: T1, human LTBP3-proTGFβ1 complex; test: as above
Procedure: as §2, §3, §4

[16] = target: T2, mouse LTBP1-proTGFβ1 complex; test: as above
Procedure: as §2, §3, §4

[17] = target: T8, mouse GARP-proTGFβ1 complex (mouse, UniProt G3XA59 18-628; P04202 30-390, limits assumed); test: as above
T8 construct: Exemplary entries; also called MuGARP-ProTGFb1; Mu GARP-ProTGFβ1
T8 sequence (G3XA59 18-628 limits assumed, chain 1 of 2): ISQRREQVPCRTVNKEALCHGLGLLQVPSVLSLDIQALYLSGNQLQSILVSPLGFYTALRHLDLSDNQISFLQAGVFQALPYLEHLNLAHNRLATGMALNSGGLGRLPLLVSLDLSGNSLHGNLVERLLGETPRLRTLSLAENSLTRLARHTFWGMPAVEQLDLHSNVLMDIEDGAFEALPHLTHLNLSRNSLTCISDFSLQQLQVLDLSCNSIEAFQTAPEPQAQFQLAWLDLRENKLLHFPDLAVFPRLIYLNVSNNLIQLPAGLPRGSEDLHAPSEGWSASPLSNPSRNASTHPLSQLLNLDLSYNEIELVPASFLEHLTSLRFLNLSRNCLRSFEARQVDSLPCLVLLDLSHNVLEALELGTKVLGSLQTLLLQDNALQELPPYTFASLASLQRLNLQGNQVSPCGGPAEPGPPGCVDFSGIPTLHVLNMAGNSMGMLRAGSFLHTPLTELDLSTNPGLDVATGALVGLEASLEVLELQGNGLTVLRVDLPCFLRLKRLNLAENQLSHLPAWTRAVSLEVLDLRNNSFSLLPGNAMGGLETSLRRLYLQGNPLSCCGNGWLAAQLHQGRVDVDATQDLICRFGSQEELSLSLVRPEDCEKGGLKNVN
T8 sequence (P04202 30-390 limits assumed, chain 2 of 2): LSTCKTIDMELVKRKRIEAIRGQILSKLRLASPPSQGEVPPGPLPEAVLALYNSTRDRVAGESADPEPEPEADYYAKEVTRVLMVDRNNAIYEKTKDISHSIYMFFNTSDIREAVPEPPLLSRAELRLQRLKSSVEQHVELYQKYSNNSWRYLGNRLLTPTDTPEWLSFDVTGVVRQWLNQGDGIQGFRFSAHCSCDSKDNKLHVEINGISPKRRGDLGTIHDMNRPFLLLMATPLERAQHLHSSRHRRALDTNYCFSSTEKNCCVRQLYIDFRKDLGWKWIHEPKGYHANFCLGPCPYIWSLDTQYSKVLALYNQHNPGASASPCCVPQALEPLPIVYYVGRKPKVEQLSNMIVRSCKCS
Procedure: as §2, §3, §4

[18] = target: T3, human LTBP1-proTGFβ1 complex; test: as above
Procedure: as §2, §3, §4

[19] = target: T6, human GARP-proTGFβ1 complex; test: as above
Procedure: as §2, §3, §4

[20] = target: T9, human LRRC33-proTGFβ1 complex (human, UniProt Q86YC3 19-650; P01137 30-390, limits assumed); test: as above
T9 construct: Exemplary entries; also called huLRRC33 proTGFb1; HuLRRC33-ProTGFb1
Procedure: as §2, §3, §4

[21] = target: T4, mouse LTBP3-proTGFβ1 complex; test: as above
Procedure: as §2, §3, §4

[22] = target: T3, human LTBP1-proTGFβ1 complex; test: SPR Biacore 8K, Fab over captured antigen
Procedure: A Biacore 8K system was employed to determine the monovalent binding affinity and the kinetic parameters for antigen binding of test antibodies. Association and dissociation kinetics of Fab fragments SR-AB42-HuFab, SR-AB63-HuFab and SR-AB43-HuFab to antigen complexes were measured, and resulting ka, kd and KD are provided below. Briefly, the binding kinetics were evaluated by surface plasmon resonance using Biacore 8K (GE Healthcare). Biotinylated capture antigens were immobilized to the chip (10 nM, ˜200 RU loading). A Biotin CAPture sensor chip was used to capture the biotinylated antigens. […] 0 nM was used as a reference. […] 0 nM was used as a reference. Multi-cycle kinetics was employed where each analyte concentration was injected in a separate cycle and the sensor chip surface was regenerated after each cycle. A11 the assays were carried out in freshly prepared 1× HBS-EP+ buffer (10 mM HEPES, 150 mM NaCl, 3 mM EDTA, 0.05% Tween20, pH 7.4). Data were fit globally to a 1:1 binding model to obtain the kinetic parameters. The sensorgram for 0 nM analyte concentration was used as reference.

T1 sequence (Q9NS15 44-1303 limits assumed, chain 1 of 2): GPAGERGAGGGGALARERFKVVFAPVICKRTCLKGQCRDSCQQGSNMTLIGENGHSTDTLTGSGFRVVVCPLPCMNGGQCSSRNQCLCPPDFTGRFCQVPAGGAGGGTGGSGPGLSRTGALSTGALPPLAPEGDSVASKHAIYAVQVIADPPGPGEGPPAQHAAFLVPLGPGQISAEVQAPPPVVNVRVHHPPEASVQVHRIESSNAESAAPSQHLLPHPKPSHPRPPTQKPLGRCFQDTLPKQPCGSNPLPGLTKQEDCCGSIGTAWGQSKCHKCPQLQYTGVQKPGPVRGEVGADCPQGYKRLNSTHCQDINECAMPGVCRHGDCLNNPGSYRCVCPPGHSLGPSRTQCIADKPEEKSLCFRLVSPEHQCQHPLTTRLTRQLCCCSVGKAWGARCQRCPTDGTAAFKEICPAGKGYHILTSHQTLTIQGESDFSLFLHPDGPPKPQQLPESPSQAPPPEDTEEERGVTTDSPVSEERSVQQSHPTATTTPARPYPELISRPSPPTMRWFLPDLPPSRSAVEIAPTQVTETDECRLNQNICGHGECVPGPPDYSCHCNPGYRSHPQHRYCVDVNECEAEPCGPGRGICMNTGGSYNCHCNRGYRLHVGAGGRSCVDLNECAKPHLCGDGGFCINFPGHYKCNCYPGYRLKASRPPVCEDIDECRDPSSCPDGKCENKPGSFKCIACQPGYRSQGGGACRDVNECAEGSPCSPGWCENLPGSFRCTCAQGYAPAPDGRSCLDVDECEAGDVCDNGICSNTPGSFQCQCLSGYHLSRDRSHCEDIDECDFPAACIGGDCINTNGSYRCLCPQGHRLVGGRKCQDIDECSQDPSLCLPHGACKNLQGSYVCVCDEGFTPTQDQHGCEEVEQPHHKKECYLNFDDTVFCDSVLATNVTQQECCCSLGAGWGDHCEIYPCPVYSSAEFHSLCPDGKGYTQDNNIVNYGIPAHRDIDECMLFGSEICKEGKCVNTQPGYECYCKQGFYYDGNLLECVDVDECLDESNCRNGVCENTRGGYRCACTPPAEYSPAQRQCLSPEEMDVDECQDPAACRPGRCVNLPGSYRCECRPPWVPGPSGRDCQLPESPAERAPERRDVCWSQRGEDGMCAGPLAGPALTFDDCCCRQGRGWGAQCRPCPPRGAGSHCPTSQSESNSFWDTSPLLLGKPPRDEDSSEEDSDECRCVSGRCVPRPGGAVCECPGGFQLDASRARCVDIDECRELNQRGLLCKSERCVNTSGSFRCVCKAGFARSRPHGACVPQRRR
T1 sequence (P01137 30-390 limits assumed, chain 2 of 2): as the sequence (P01137 30-390 limits assumed, chain 2 of 2) above

Row | Binder | Kd [1] [pM] | koff [1] [s⁻¹] | kon [1] [M⁻¹ s⁻¹] | Kd [2] [pM] | Kd [3] [pM] | koff [3] [s⁻¹] | kon [3] [M⁻¹ s⁻¹] | Kd [4] [pM] | IC50, mLTBP1 assay (CAGA12 luciferase) [5] [pM] | IC50, endogenous hLTBP assay (CAGA12 luciferase) [6] [pM] | binding result [7] | IC50, mLTBP1 assay (CAGA12 luciferase) [8] [pM] | IC50, endogenous hLTBP assay (CAGA12 luciferase) [9] [pM] | Kd [10] [pM] | Kd [11] [pM] | further results
1 | SR-AB63 (antibody, IgG1, V domains shown, Cycle 3, lineage SR-AB26) VH: QLQLQESGPGLVKPSETLSLTCTVSGGSIRSSSYYWGWIRQPPGKGLEWIGSISYSATTYYNPSLKSRVTISVDTSKNQFSLKLSSVTAADTAVYYCAGDPSYDSIAGMQVWGQGTTVTVSS VL: DIQLTQSPSSLSASVGDRVTITCRASQSISSYLNWYQQKPGKAPKLLIYAASNLQSGVPSRFSGSGSGTDFTLTISSLQPEDFATYYCQQSFDWPLTFGGGTKVEIK | 494 | 7.84e-05 | 159000 | 1090 | 611 | 7.24e-05 | 118000 | 2000 | 208 | 1780 | – | – | – | – | – | –
2 | SR-AB37 (antibody, IgG1, V domains shown, Cycle 3, lineage SR-AB22) VH: QVQLVESGGGVVQPGRSLRLSCAASGFTFRSYVMHWVRQAPGKGLEWVAVISHEGSLKYYADSVKGRFTISRDNSKNTLYLQMNSLRAEDTAVYYCAVPRIAARRGGFGYWGQGTLVTVSS VL: NFMLTQPHSVSESPGKTVTISCTRSSGLIDDNYVQWYQQRPGSSPTTVIYEDNQRPSGVPDRFSGSIDSSSNSASLTISGLKTEDEADYYCQSYDSDLQRVVFGGGTKLTVL | 139 | 7.58e-05 | 545000 | 384 | 328 | 0.000118 | 360000 | 325 | – | – | – | 543 | 1930 | 36100 | 36100 | –
3 | SR-AB49-HuFab (Fab, V domains shown, Human Fab; also called SR-AB49 Fab) VH: QVQLVESGGGVVQPGRSLRLSCAASGFTFRSYVMHWVRQAPGKGLEWVAVISHEGSGKYYADSVKGRFTISRDNSKNTLYLQMNSLRAEDTAVYYCARPRIAARRGGFGSWGQGTLVTVSS VL: NFMLTQPHSVSESPGKTVTISCTRSSGNIDYNYVQWYQQRPGSSPTTVIYEDNVRPSGVPDRFSGSIDSSSNSASLTISGLKTEDEADYYCQGYDWDTQGVVFGGGTKLTVL | – | – | – | – | – | – | – | – | – | – | – | – | – | – | – | Kd [14]: 6940 pM; Kd [15]: 580 pM; Kd [16]: 379 pM; Kd [17]: 2820 pM; Kd [18]: 319 pM; Kd [19]: 6550 pM; Kd [20]: 7700 pM; Kd [21]: 650 pM; Kd [22]: 170 pM; koff [22]: 0.000138 s⁻¹; kon [22]: 809000 M⁻¹ s⁻¹
4 | SR-AB39 (antibody, IgG1, V domains shown, Cycle 3, lineage SR-AB22) VH: QVQLVESGGGVVQPGRSLRLSCAASGFTFRSYVMHWVRQAPGKGLEWVAVISHEGSLKYYADSVKGRFTISRDNSKNTLYLQMNSLRAEDTAVYYCAVPRIAARRGGFGYWGQGTLVTVSS VL: NFMLTQPHSVSESPGKTVTISCTRSSGLIDDNYVQWYQQRPGSSPTTVIYEDAQRPSGVPDRFSGSIDSSSNSASLTISGLKTEDEADYYCQSYDHDEQGVVFGGGTKLTVL | 136 | 6e-05 | 441000 | 232 | 205 | 6e-05 | 292000 | 342 | – | – | – | 479 | 1010 | 389000 | 389000 | –

Further lines, with some results ahead:

Row | Kd [1] [pM] | koff [1] [s⁻¹] | kon [1] [M⁻¹ s⁻¹] | Kd [2] [pM] | Kd [3] [pM] | koff [3] [s⁻¹] | kon [3] [M⁻¹ s⁻¹] | Kd [4] [pM] | IC50, mLTBP1 assay (CAGA12 luciferase) [5] [pM] | IC50, endogenous hLTBP assay (CAGA12 luciferase) [6] [pM] | binding result [7] | IC50, mLTBP1 assay (CAGA12 luciferase) [8] [pM] | IC50, endogenous hLTBP assay (CAGA12 luciferase) [9] [pM] | Kd [10] [pM] | Kd [11] [pM] | Binder | further results
5 | 471 | 9.18e-05 | 195000 | 1030 | 467 | – | – | 2850 | 268 | 3120 | no binding (tested: 200 nM) | – | – | – | – | SR-AB64 (antibody, IgG1, V domains shown, Cycle 3, lineage SR-AB26) VH: QLQLQESGPGLVKPSETLSLTCTVSGGSIRSSSYYWGWIRQPPGKGLEWIGSISYSATTYYNPSLKSRVTISVDTSKNQFSLKLSSVTAADTAVYYCAGDPSYDSIAGMQVWGQGTTVTVSS VL: DIQMTQSPSSLSASVGDRVTITCRASQSISYYLNWYQQKPGKAPKLLIYSASSRQSGVPSRFSGSGSGTDFTLTISSLQPEDFATYYCQQGFDFPLTFGGGTKVEIK | –
6 | 333 | 6.07e-05 | 182000 | 1080 | 401 | 6e-05 | 150000 | 1160 | – | – | no binding (tested: 200 nM) | – | – | – | – | SR-AB40 (antibody, IgG1, V domains shown, Cycle 3, lineage SR-AB23) VH: QVQLVESGGGVVQPGRSLRLSCAASGFTFRSYVMHWVRQAPGKGLEWVAVISHEGSLKYYADSVKGRFTISRDNSKNTLYLQMNSLRAEDTAVYYCARPRIAARRGGFGYWGQGTLVTVSS VL: NFMLTQPHSVSESPGKTVTISCTRSSGNIDNNYVQWYQQRPGSSPTTVIYEDNQRPSGVPDRFSGSIDSSSNSASLTISGLKTEDEADYYCQSYDYSNQGVVFGGGTKLTVL | IC50, mLTBP1 assay (CAGA12 luciferase) [12]: 333 pM; IC50, endogenous hLTBP assay (CAGA12 luciferase) [13]: 2100 pM
